As usually defined, the IC50 is the midpoint of a concentration-inhibition curve. The EC50 is the concentration giving half of the maximal effect.

Here are results for three substances from patent US20210238289A1.

One assay addresses CD32a (UniProt P12318). In words: solution competition SPR (Biacore).
The target in assay [1] is VLA receptors (alpha-4 integrin) of cynomolgus monkeys in vivo (cynomolgus monkey). In words: free receptor measured in cynomolgus monkeys after a single IV dose.
Assay [2] has the same target. In words: model-estimated (direct Emax PKPD model) EC50 for the formation of drug-bound VLA in cynomolgus monkeys.
Assay [3] deals with VLA-4 on tumor cell lines (UniProt P13612). The assay is described as follows: flow cytometry on H929 cells (MM).
Assay [4] shares this target. In words: flow cytometry on JM1 cells (CLL). (Flow cytometry measures light scatter and fluorescence of single cells or particles in a stream.)
For assay [5] the target is unchanged. In words: flow cytometry on KG1 cells (AML).
For assay [6] the target is unchanged. The assay is described as follows: flow cytometry on U266 cells (MM).
Assay [7] has the same target. The assay is described as follows: flow cytometry on HL60 cells (AML).
The target is the same in assay [8]. In words: flow cytometry on Mec1 cells (CLL).
For assay [9] the target is unchanged. The assay is described as follows: inhibition of adhesion of JM1 cells to VCAM1-Ig-coated wells.
Assay [10] shares this target. In words: inhibition of adhesion of KG1 cells to VCAM1-Ig-coated wells.
Assay [11] shares this target. In words: inhibition of adhesion of H929 cells to VCAM1-Ig-coated wells.
Assay [12] has the same target. The assay is described as follows: inhibition of adhesion of HL60 cells to VCAM1-Ig-coated wells.
The target is the same in assay [13]. The assay is described as follows: inhibition of adhesion of Mec1 cells to VCAM1-Ig-coated wells.
For assay [14] the target is unchanged. The assay is described as follows: inhibition of adhesion of U266 cells to VCAM1-Ig-coated wells.
Assay [15] has the same target. In words: inhibition of adhesion of KG1 cells to fibronectin-coated wells.
Assay [16] shares this target. The assay is described as follows: inhibition of adhesion of H929 cells to fibronectin-coated wells.
Assay [17] has the same target. The assay is described as follows: inhibition of adhesion of HL60 cells to fibronectin-coated wells.
Assay [18] shares this target. The assay is described as follows: inhibition of adhesion of Mec1 cells to fibronectin-coated wells.
Assay [19] shares this target. In words: inhibition of adhesion of U266 cells to fibronectin-coated wells.
Assay [20] addresses α4β1 (VLA-4) as used in the competition ELISAs (UniProt P13612). The assay is described as follows: competition ELISA; mixture of mouse HP1/2 with test mAb binding to integrin. (ELISA stands for enzyme-linked immunosorbent assay.)
Assay [21] has the same target. The assay is described as follows: competition ELISA; integrin preincubated with test mAb, then murine HP1/2 as competing reagent.

Sequence of TYSABRI (natalizumab) (antibody) (VH): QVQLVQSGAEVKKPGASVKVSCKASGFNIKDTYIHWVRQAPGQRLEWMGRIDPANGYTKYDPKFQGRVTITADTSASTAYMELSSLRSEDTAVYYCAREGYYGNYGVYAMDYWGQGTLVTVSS
Sequence of TYSABRI (natalizumab) (antibody) (VL): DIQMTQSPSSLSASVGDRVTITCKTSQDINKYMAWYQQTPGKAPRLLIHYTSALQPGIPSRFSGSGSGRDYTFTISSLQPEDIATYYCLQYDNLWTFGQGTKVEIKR

As for EAG2379 (hu5c8 IgG1 T299E) (antibody), the concentration for half-maximal inhibition (IC50) with CD32a worked out at 1280 µM.
In turn, TYSABRI (natalizumab) (antibody) yielded a receptor occupancy in assay [1] of more than 90%. Moreover, in assay [2], the EC50 was 6.4 ng/mL.
As to HuHP1/2 (antibody), the concentration giving a half-maximal response (EC50) in [3] stood at 0.00091 µM; in assay [4], 0.00021 µM; in assay [5] it was 0.00019 µM; in assay [6], 0.00046 µM; in assay [7], 0.00011 µM; in assay [8] it was 0.00011 µM. The half-maximal inhibitory concentration (IC50) in [9] turned out to be 0.00012 µM; in assay [10], 0.0001 µM; in assay [11], 0.00135 µM; in assay [12] it was 0.00091 µM; in assay [13] it was 0.07 nM; in [14], 0.00013 µM. Further, the IC50 in assay [15] was 0.05 nM; in [16] it was 0.00021 µM; in [17], 0.00016 µM; in [18], 0.0001 µM; in [19], 0.00014 µM; in assay [20], 0.00141 µM. Besides, the half-maximal inhibitory concentration (IC50) in [21] worked out at 0.00105 µM.
